From article PMC2474558 (Biochemical Journal, 2008)

Target: hDOP–Renilla luciferase (human, UniProt P41143 1-372)
Test: FRET or BRET

Chain of hDOP–Renilla luciferase (P41143 whole entry): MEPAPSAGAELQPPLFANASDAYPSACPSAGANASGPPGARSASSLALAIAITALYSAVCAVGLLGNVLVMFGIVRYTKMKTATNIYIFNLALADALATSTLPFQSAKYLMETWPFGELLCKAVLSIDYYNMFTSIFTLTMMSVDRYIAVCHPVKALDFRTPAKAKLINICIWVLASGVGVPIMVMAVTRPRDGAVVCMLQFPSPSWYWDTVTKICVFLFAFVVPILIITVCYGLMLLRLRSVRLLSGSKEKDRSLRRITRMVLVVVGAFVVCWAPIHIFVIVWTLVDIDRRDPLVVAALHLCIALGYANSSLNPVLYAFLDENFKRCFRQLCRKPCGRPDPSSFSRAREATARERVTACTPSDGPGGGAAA

- BRET50: 0.34 ± 0.02 [acceptor] to [donor] ratio
B1: hCXCR2–GFP^2 (receptor)
chain: MEDFNMESDSFEDFWKGEDLSNYSYSSTLPPFLLDAAPCEPESLEINKYFVVIIYALVFLLSLLGNSLVMLVILYSRVGRSVTDVYLLNLALADLLFALTLPIWAASKVNGWIFGTFLCKVVSLLKEVNFYSGILLLACISVDRYLAIVHATRTLTQKRYLVKFICLSIWGLSLLLALPVLLFRRTVYSSNVSPACYEDMGNNTANWRMLLRILPQSFGFIVPLLIMLFCYGFTLRTLFKAHMGQKHRAMRVIFAVVLIFLLCWLPYNLVLLADTLMRTQVIQETCERRNHIDRALDATEILGILHSCLNPLIYAFIGQKFRHGLLKILAIHGLISKDSLPKDSRPSFVGSSSGHTSTTL
